Experimental data reported in publication PMC7764042.

Molecular target: recombinant human interferon beta-1a (human), P01574
Test: SPR; IFN-β immobilised on ProteOn GLH chip by amine coupling; Ca^2+-loaded S100 as analyte (0.25–5 µM S100A1, 0.5–5 µM S100A4/A6, 5 µM other S100); 25 °C; 10 mM HEPES, 150 mM NaCl, 0.01% TWEEN 20, pH 7.4, 1 mM CaCl2; heterogeneous ligand model
Conditions: remark: other sources report otherwise

B1: recombinant human S100B, P04271 1-92 (natural protein)
chain: MSELEKAMVALIDVFHQYSGREGDKHKLKKSELKELINNELSHFLEEIKEQEVVDKVMETLDNDGDGECDFQEFMAFVAMVTTACHEFFEHE
  Kd: > 10 µM
